The text below walks through data of US20030008355A1 (published 2003).

The target in test [1] is carcinoembryonic antigen (CEA) (UniProt P06731). The test is described as follows: acid-wash EIA on CEA-coated plates, citrate pH 2.5, 1 h 37 C.
Test [2] has as its target T1, carcinoembryonic antigen (CEA) (UniProt P06731 35-685, limits assumed).
T1 construct: Antigen coated on microtitre plates
T1 sequence (looked up): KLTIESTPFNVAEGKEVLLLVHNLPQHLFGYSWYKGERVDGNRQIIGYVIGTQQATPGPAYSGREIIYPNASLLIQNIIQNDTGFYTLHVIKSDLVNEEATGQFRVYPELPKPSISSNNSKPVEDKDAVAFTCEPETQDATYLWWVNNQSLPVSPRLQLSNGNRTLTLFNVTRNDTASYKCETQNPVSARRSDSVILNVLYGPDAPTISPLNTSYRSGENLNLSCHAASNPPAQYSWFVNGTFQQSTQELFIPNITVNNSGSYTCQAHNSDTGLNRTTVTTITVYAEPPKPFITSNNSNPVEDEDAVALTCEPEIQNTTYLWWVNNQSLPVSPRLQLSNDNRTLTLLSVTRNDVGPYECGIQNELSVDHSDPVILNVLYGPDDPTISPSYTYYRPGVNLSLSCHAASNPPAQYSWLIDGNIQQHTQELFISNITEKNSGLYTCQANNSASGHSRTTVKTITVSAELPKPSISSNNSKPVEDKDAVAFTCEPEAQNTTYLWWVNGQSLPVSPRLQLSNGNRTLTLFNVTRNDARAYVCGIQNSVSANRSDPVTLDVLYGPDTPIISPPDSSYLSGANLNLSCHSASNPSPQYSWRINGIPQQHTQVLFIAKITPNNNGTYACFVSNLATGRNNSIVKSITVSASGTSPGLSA
The test is described as follows: acid-wash EIA on CEA-coated plates, citrate pH 2.0, 1 h 37 C. On the procedure:
(§1) Carcinoembryonic antigen (CEA)-coated microtitre plates were prepared as described previously. Single-chain Fv samples (6H9) were diluted to a range of concentrations between 1 ng/ml and 100 ng/ml in PBS at pH 7.2 containing 1% bovine serum albumin (BSA). 100 μl samples were added to the microtitre plate wells and incubated for 1 hour at 37° C. The plates were then washed, 200 μl per well of citrate added, and the plates incubated for 1 hour at 37° C. In this case, the acid preparations were made using a stock solution of 100 mM citrate diluted to pH values of 4.0, 3.5, 3.0, 2.5 and 2.0 in the reaction mixture. PBS at pH 7.2 was used as a reference control. The plates were then washed and 100 μl per well of mouse anti-tetra-histidine antibody (Qiagen) (100 ng/ml diluted in PBS at pH 7.2 with 1% BSA) added and incubated for 1 hour at 37° C. […] The plates were then washed, treated with PNPP as described previously and the absorbance measured using a spectrophotometer at 405 nm.
(§2) As a control for acid resistance, sFv samples were incubated with PBS at pH 7.2 to generate an EIA response curve for the SFv samples. In the linear region, a concentration of 10-20 ng/ml of the SFv sample gave an absorbance (A₄₀₅) of 1.0-1.5 and was therefore used to determine the amount of antibody bound in the acid washed samples as a percentage of the amount bound in the reference sample.

Test [3] deals with T1, carcinoembryonic antigen (CEA). Nature of the test: acid-wash EIA on CEA-coated plates, citrate pH 3.5, 1 h 37 C. On the procedure: as §1, §2
Test [4] shares this target. The test is described as follows: acid-wash EIA on CEA-coated plates, citrate pH 2.5, 1 h 37 C. On the procedure:
as §1, §2

The target is the same in test [5]. The test is described as follows: acid-wash EIA on CEA-coated plates, HCl pH 2, 1 h 37 C, against standard EIA. On the procedure: Maxisorb assay plates (NUNC) were coated with CEA (0.4 μg/ml in phosphate-buffered saline at pH 7.2), 100 μl per well and left overnight at 4° C. The plates were then washed three times using phosphate buffered saline at pH 7.2 with 0.01% Tween 20 detergent. Any remaining reactive sites on the plates were blocked by the addition of 200 μl per well of 0.2% fat-free milk protein in PBS at pH 7.2 at 37° C. for ½ hour. The plates were then washed in PBS as described above and 45 μl of the antibody samples were added to the wells of the plates. The samples were incubated for one hour at 37° C. and then washed as described previously. Bound antibody was detected using alkaline phosphatase-conjugated donkey anti-sheep antibody (Sigma A5187 diluted 1/5000 in PBS at pH 7.2 with 1% BSA). The plates were then washed and 100 μl per well of PNPP (Sigma N2770) solution was added. Absorbance was measured using a spectrophotometer at 405 nm with phosphate buffered saline as a control.
Coating and binding of antibody samples was as described for the standard EIA above. However, after incubation with the antibody samples, the plates were washed and 200 μl per well of HCl (10 mM Stock solution) at pH 2 was added for one hour at 37° C. After three washes the antibody remaining bound to antigen was detected using alkaline phosphatase-conjugated donkey anti-sheep antibody and PNPP as described above. […]

For the molecule “mouse-derived anti-carcinoembryonic antigen single-chain Fv MFE (scFv)”, the percent antigen binding retained at pH 2.5 relative to pH 7.2 in test [1] was less than 5%.

B1: 6H9 single-chain Fv (scFv)
scFv: QVQLQESGPSLVKPSQTLSLTCTVSGFSLTKYGVSWVRQAPGKALEWLGGVSSGALTAYNTALQSRLSVTRDTSKSQFSLSLSSVTTEDTAIYYCAKSVNGDSVPYGLDYWSPGLLLTVSSGGGGSGGGGSGGGGSQDVLTQPSSVSGSLGQRVSITCSGSSSNIGGNAYVGWYQQVPGSAPRLLISATTDRASGIPDRFSGSRSGNTATLTISSLQAEDEADYYCASYQSTYSGVFGSGTRLTVLGHHHHHH
notes: VH-(Gly4Ser)3-VL with C-terminal hexa-histidine tag, expressed in E. coli HB 2151; also called 6H9 SFv; sFv
On to B1, for which the “percent antigen binding retained at pH 2.0 relative to pH 7.2” value in test [2] is more than 50%. Also, in test [3], the “percent antigen binding retained at pH 3.5 relative to pH 7.2” value was more than 70%. In addition, the “percent antigen binding retained at pH 2.5 relative to pH 7.2” value in test [4] was more than 60%.

B2: 6H9 whole antibody (sheep monoclonal antibody secreted by hybridoma 6H9) (antibody, V domains shown)
VH: QVQLQESGPSLVKPSQTLSLTCTVSGFSLTKYGVSWVRQAPGKALEWLGGVSSGALTAYNTALQSRLSVTRDTSKSQFSLSLSSVTTEDTAIYYCAKSVNGDSVPYGLDYWSPGLLLTVSS
VL: QDVLTQPSSVSGSLGQRVSITCSGSSSNIGGNAYVGWYQQVPGSAPRLLISATTDRASGIPDRFSGSRSGNTATLTISSLQAEDEADYYCASYQSTYSGVFGSGTRLTVLG
notes: Whole sheep monoclonal antibody
With B2, the “percent antigen binding retained at pH 2.0 relative to pH 7.2” value in test [2] is more than 50%. The “percent antigen binding retained at pH 3.5 relative to pH 7.2” value in test [3] was more than 70%. Besides, the “retention of binding in acid-washed EIA (pH 2) relative to non-acid washed EIA” value in test [5] was more than 50%. For the same molecule, the “percent antigen binding retained at pH 2.5 relative to pH 7.2” value in test [4] is more than 60%.

B3: mouse-derived anti-carcinoembryonic antigen whole antibody A5B7 (antibody, from another filing, V domains shown)
VH: EVKLVESGGGLVQPGGSLRLSCATSGFTFTDYYMNWVRQPPGKALEWLGFIGNKANGYTTEYSASVKGRFTISRDKSQSILYLQMNTLRAEDSATYYCTRDRGLRFYFDYWGQGTTLTVSS
VL: QTVLSQSPAILSASPGEKVTMTCRASSSVTYIHWYQQKPGSSPKSWIYATSNLASGVPARFSGSGSGTSYSLTISRVEAEDAATYYCQHWSSKPPTFGGGTKLEIK
On to B3, for which, in test [1], the percent antigen binding retained at pH 2.5 relative to pH 7.2 was less than 5%.
